# Where two headings read alike, the source gives them in different places.
# B1: B12 (VHH)
# VHH: DVQLQESGGGLVQPGGSLRLSCAASGFTFEAYTMSWVRQAPGKGLEWVSAISQGGATTAYADSVKGRFTISRDNAKSTLYLQMNNLKPEDTAVYYCAKWVFTPSVLGQGTQVTVSS
# B2: N1, VHH of a colony from the third-round sublibrary of CyclinE (VHH)
# VHH: DVQLQESGGGLVQAGGSLRLSCAASGGTFSRYSMGWFRQAPGKEREFVSAIGWSGYSTRYADSVKGRFTISRDNAKNTVYLQMNSLKPEDTAVYYCNAIVGVFIKRQYWGQGTQVTVSS
# notes: The colony ELISA follows Fang et al., 2020; source: randomly selected colony from the third-round sublibrary of CyclinE (vhh in phage display vector pADL-10b), not purified
# B3: C3, nanobody against CG7544 (Flag-Nb-His) (VHH)
# VHH: DVQLQESGGGLVQAGGSLRLSCAASGNTLSTYGMGWFRQAPGKEREFVALINWGGTANYEDSVKGRFTISRDNVQNTMYLQMNNLKPEDTAVYYCFLGTYWGQGTWSPSPA
# notes: not shown: Flag, N-terminal, kept
# B4: C4 (VHH)
# VHH: DVQLQESGGGLVQPGGSLRLSCAASGFTFDSNAFGWFRQAPGKEREGVSCISARDSTTFYADAVKGRFTVSRDSAKNTVYLEMDSLKPEDTAVYYCATLYRATAQAMCAMSTLLGYWGQGTQVTVSS
# B5: C8 (VHH)
# VHH: DVQLQESGGGLVQAGGSLRLSCAASGLTSSYYAIGWFRQAPGKDSEGVSCLDTTGNRINLSNSAKGRFTISRDNAKNTVYLQMNNLKPEDTAIYYCTVVLNSLCDSRWIGAFGSWGQGTQVTVSS
# B6: C9 (VHH)
# VHH: DVQLQESGGTLVQPGGSLRLSCKASGFPFSDYHMSWVRQAPGKRPEWLSVITTSGDWTHYADSVKGRFAISRDNAKSTLYLQMNSLKPDDTAVYYCARGHYIILGQGTQVTVSS
# Legend:
# [1] = target: Drosophila Myc, amino acids 1-400 (truncated Myc) (Drosophila melanogaster, strain not …, UniProt Q9W4S7)
# Sequence of Drosophila Myc, amino acids 1-400 (truncated Myc) (Q9W4S7 1-400): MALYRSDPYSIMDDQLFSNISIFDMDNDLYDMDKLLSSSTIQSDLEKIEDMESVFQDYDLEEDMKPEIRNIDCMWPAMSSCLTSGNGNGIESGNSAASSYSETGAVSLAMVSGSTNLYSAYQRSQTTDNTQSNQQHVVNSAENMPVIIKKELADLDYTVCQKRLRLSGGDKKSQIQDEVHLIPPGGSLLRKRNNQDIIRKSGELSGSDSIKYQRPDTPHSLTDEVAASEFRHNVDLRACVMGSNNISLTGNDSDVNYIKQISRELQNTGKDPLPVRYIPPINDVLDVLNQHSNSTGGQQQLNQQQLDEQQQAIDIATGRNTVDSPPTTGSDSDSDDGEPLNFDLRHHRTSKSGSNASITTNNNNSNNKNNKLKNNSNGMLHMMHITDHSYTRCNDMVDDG
# [2] = target: T1, Drosophila CyclinE, amino acids 1-361 (truncated CyclinE) (Drosophila melanogaster (Fruit fly)., UniProt P54733); assay: ELISA; colonies of the third-round sublibrary tested on a 96-well plate coated with CyclinE, blocked with 3% BSA; absorbance at 405 nm twofold over negative control wells counted as positive; conditions: one partner purified
# T1 construct: CyclinE of Drosophila melanogaster, 709 aa, amino acids 1-361, PCR-amplified from cDNA and cloned into pET-28a-GFP-TEV; Vector pET-28a-GFP-TEV was built in the authors' laboratory; also called CycE; source: E. coli BL21 (DE3); not shown: GFP, N-terminal, cleaved
# T1 sequence (P54733 1-361): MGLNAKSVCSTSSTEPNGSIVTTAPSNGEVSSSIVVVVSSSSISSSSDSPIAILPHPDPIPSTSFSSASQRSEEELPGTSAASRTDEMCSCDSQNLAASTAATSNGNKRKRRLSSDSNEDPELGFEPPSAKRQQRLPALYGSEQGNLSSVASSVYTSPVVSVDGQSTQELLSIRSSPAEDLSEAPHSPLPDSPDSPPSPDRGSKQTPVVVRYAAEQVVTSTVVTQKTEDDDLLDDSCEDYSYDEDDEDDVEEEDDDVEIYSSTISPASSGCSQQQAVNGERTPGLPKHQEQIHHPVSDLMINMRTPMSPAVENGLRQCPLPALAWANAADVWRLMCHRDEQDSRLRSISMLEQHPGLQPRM
# [3] = target: T2, Drosophila CG7544, full length (Drosophila melanogaster (Fruit fly)., UniProt Q7K3B9); assay: ELISA; 96-well plate coated with 1 ug/well purified antigen, blocked with 3% BSA; 1 ug purified VHH for 2 h at RT; anti-Flag antibody, HRP anti-mouse, TMB, absorbance at 450 nm; negative controls without Flag antibody or VHH; conditions: both partners purified
# T2 construct: CG7544 of Drosophila melanogaster, 305 aa, RNA N6-methyltransferase of U6 small nuclear RNA; full length, PCR-amplified from Drosophila cDNA and cloned into pET-28a; also called CG7454 (misprint in the results)
# T2 sequence (Q7K3B9 whole entry): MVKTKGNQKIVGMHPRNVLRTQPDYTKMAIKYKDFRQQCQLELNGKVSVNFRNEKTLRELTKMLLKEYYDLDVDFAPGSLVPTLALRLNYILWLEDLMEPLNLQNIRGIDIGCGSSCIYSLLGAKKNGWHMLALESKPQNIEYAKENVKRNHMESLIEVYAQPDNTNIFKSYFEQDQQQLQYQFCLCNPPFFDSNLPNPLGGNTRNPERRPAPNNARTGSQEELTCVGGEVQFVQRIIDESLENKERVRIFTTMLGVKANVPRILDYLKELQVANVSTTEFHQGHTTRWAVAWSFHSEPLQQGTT
# [4] = target: T2, Drosophila CG7544, full length
binder,measurement,setting,value
B1,binding result,[1],binds
B2,binding result,[2],binds
B3,binding result,[3],binds
B4,Kd,[4],10.5 µM
B5,binding result,[4],binds
B6,binding result,[1],binds

# Source: PMC10289234, “Construction of an alpaca immune antibody library for the selection of nanobodies against Drosophila melanogaster proteins” (Frontiers in Bioengineering and Biotechnology, 2023)
